Structures can show the parent of a compound that is named as a salt. Where two headings read alike, the source gives them in different places.
Columns and labels:
[1] = biological target: T1, atypical BChE from O. latipes (Oryzias latipes, UniProt D5L5S0); assay: Ellman assay, COS-7 extract, three-parameter logistic fit; type: biochemical
T1 construct: GPI-anchored amphiphilic dimer (G2a)
T1 sequence (D5L5S0 26-589): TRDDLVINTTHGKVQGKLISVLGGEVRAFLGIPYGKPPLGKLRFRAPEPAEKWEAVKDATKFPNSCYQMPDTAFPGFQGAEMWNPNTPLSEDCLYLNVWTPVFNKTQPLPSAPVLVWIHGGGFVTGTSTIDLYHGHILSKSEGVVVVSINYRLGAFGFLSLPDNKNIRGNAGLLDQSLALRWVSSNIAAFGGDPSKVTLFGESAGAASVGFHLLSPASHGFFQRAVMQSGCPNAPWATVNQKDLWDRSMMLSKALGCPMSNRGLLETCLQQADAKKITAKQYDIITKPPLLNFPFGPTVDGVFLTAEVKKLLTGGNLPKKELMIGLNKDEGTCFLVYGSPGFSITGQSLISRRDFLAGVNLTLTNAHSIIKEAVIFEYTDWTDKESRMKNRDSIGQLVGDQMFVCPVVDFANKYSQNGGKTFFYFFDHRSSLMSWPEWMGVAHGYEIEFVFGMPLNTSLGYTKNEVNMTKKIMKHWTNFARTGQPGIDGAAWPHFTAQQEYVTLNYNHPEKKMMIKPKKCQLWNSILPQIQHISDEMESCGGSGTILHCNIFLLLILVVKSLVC
From the text: Ellman assay, COS-7 extract, three-parameter logistic fit on atypical BChE from O. latipes

[2] = substrate: CCC(=O)SCC[N+](C)(C)C; assay: Ellman assay, COS-7 extract, fit with substrate inhibition (Km, Kss, b); type: biochemical, Oryzias latipes; conditions: 100 mM NaHPO4 pH 7, 0.3 mM DTNB, 167 mM NaCl, 258 µM Triton X-100
From the text: (§1) Ellman assay, COS-7 extract, fit with substrate inhibition (Km, Kss, b) on atypical BChE from O. latipes

[3] = substrate: CC(=O)SCC[N+](C)(C)C; assay: as above; type: biochemical, Oryzias latipes; conditions: 100 mM NaHPO4 pH 7, 0.3 mM DTNB, 167 mM NaCl, 258 µM Triton X-100
From the text: as §1

[4] = substrate: CCCC(=O)SCC[N+](C)(C)C; assay: as above; type: biochemical, Oryzias latipes; conditions: 100 mM NaHPO4 pH 7, 0.3 mM DTNB, 167 mM NaCl, 258 µM Triton X-100
From the text: as §1

`CC(C)NP(=O)(NC(C)C)OP(=O)(NC(C)C)NC(C)C` [iso-OMPA, N-[bis(propan-2-ylamino)phosphoryloxy-(propan-2-ylamino)phosphoryl]propan-2-amine] was tested, and the IC50 ([1]; read-out: IC50 M) was 4580 µM.

`CNC(=O)Oc1ccc2c(c1)[C@]1(C)CCN(C)[C@@H]1N2C` [physostigmine, (3aS-cis)-1,2,3,3a,8,8a-hexahydro-1,3a,8-trimethylpyrrolo[2,3-b]indol-5-ol methylcarbamate] gave an IC50 [1] of 0.0585 µM.

`C=CC[N+](C)(C)c1ccc(CCC(=O)CCc2ccc([N+](C)(C)CC=C)cc2)cc1` [BW284c51, [4-[5-[4-(dimethyl-prop-2-enyl-ammonio)phenyl]-3-oxo-pentyl]phenyl]-dimethyl-prop-2-enyl-azanium dibromide] gave an IC50 ([1]; read-out: IC50 M) of 480 µM.

`CCN(CC)C(C)CN1c2ccccc2Sc2ccccc21` (stereo not shown) [ethopropazine, 10-(2-diethylaminopropyl) phenothiazine hydrochloride] gave an IC50 ([1]; read-out: IC50 M) of 0.898 µM.

B1: atypical BChE from O. latipes (Oryzias latipes) (protein)
chain: TRDDLVINTTHGKVQGKLISVLGGEVRAFLGIPYGKPPLGKLRFRAPEPAEKWEAVKDATKFPNSCYQMPDTAFPGFQGAEMWNPNTPLSEDCLYLNVWTPVFNKTQPLPSAPVLVWIHGGGFVTGTSTIDLYHGHILSKSEGVVVVSINYRLGAFGFLSLPDNKNIRGNAGLLDQSLALRWVSSNIAAFGGDPSKVTLFGESAGAASVGFHLLSPASHGFFQRAVMQSGCPNAPWATVNQKDLWDRSMMLSKALGCPMSNRGLLETCLQQADAKKITAKQYDIITKPPLLNFPFGPTVDGVFLTAEVKKLLTGGNLPKKELMIGLNKDEGTCFLVYGSPGFSITGQSLISRRDFLAGVNLTLTNAHSIIKEAVIFEYTDWTDKESRMKNRDSIGQLVGDQMFVCPVVDFANKYSQNGGKTFFYFFDHRSSLMSWPEWMGVAHGYEIEFVFGMPLNTSLGYTKNEVNMTKKIMKHWTNFARTGQPGIDGAAWPHFTAQQEYVTLNYNHPEKKMMIKPKKCQLWNSILPQIQHISDEMESCGGSGTILHCNIFLLLILVVKSLVC
notes: GPI-anchored amphiphilic dimer (G2a)
B1 was tested, and the Km [2] was 156 ± 15 µM, the kcat [2] was 512 ± 40 s⁻¹ and the kcat/Km [2] was 3.33e+06 ± 83300 M⁻¹ s⁻¹. The Km [3] was 270 ± 18 µM, the kcat [3] was 460 ± 18.3 s⁻¹ and the kcat/Km [3] was 1.72e+06 ± 83300 M⁻¹ s⁻¹. For the same molecule, the Km [4] was 72 ± 6 µM, the kcat [4] was 117 ± 5 s⁻¹ and the kcat/Km [4] was 1.65e+06 ± 117000 M⁻¹ s⁻¹.

From paper PMC3045457, “Evolution of Acetylcholinesterase and Butyrylcholinesterase in the Vertebrates: An Atypical Butyrylcholinesterase from the Medaka Oryzias latipes” (PLoS ONE, 2011)
